In US20250171562A1 (ALK ABELL, published 2025):

Tests used:
[1] = biological target: T1, recombinant human IgE (human, UniProt P01854-1 1-428); assay: IgE-FcεRIα displacement ELISA
T1 construct: made in-house (ALK); preloaded on immobilised FcεRIα in the displacement ELISA
How it was run: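 Streptavidin-coated plates carried site-specifically biotinylated recombinant human FcεRIα, loaded with recombinant human IgE at 13 ng/ml. sdAbs in a pM–μM series were added for 1 h, and displaced IgE was washed off. Percent displacement was the signal reduction versus the no-sdAb control, giving EC50 and maximal effect.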

[2] = biological target: T2, IgE-Fc Cε3-4 (human, UniProt P01854-1 209-428, limits assumed); assay: ELISA, immobilised IgE-Fc Cε3-4
T2 construct: domain: Cε3-Cε4; coated at 2 µg/mL in the ELISA; also called IgE-Fc Cε3-Cε4
Protocol: SdAb monomers of interest (table 1) and identified in example 2 were amplified from pNT plasmid by PCR and recloned in pET22b plasmid by SLICE cloning reaction. Thereby, a pelB signal sequence and a C-terminal his/HA tag were added to the sdAbs allowing for secretion into periplasmic space and subsequent purification and detection. SdAbs were expressed in E. coli Rosetta (DE3) cells using 2YT media. Expression was induced in early exponential phase with 0.5 mM IPTG and carried overnight at 20° C.-25° C. Purification of sdAbs from supernatant or supernatant+periplasmic extract was performed by IMAC using HisTrap excel column (Cytiva) as first step and by SEC with a Hiload 16-600 Superdex® 75 pg (Cytiva) column as second step. Size and purity of each sdAbs were evaluated on a 15% acrylamide SDS-PAGE. Then, immunoreactivity of sdAbs against immobilized IgE-Fc Cε2-4 and IgE-Fc Cε3-4 was analysed by ELISA. IgE-Fc were coated at 2 μg/mL overnight in a Nunc MaxiSorp plate (ThermoFisher). After blocking sdAbs were added at a 1:10 dilution in TBS and incubated 3h at room temperature. Detection was performed using a mouse anti-HA antibody (ThermoFisher) and an anti-mouse IgG AP conjugated (Sigma Aldrich).

[3] = biological target: T3, biotinylated IgE Fc (UniProt P01854-1 104-428, biotinylated); assay: BLI (Octet), IgE Fc on sensor, 1:1 fit
T3 construct: also called IgE Fc (made in-house ALK, Denmark)
Protocol: The biotinylated IgE Fc (made in-house ALK, Denmark) was immobilised on SAX (High precision streptavidin) sensors (FortéBIO) to max 1 nm. The association (240 s) and dissociation (600 s) were measured for the analytes in a serial dilution (from 10 nM to 0.37 nM). Data were subtracted to blank reference sensors exposed to the same serial analyte dilutions, aligned, and analysed in the Octet Data Analysis HT 11.1 Software (FortéBIO) using a 1:1 fitting model.

T3 sequence (P01854 other isoform, or with tags, fused parts or gaps): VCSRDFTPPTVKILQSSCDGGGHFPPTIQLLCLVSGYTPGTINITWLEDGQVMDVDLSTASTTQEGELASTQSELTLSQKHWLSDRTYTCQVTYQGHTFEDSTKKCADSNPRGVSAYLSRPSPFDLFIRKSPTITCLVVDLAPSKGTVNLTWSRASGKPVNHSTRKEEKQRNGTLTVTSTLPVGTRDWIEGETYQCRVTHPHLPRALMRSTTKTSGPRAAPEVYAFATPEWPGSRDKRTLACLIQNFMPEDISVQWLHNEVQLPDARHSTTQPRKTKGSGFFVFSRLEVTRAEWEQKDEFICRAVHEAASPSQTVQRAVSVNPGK
T2 sequence (P01854 other isoform, or with tags, fused parts or gaps limits assumed): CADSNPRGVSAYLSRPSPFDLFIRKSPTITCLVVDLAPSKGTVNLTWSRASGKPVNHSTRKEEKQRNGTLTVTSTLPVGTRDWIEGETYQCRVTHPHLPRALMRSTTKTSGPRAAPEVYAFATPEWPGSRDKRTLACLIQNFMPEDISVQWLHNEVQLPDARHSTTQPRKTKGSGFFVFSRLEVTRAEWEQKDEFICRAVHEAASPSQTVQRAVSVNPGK
T1 sequence (P01854 other isoform, or with tags, fused parts or gaps): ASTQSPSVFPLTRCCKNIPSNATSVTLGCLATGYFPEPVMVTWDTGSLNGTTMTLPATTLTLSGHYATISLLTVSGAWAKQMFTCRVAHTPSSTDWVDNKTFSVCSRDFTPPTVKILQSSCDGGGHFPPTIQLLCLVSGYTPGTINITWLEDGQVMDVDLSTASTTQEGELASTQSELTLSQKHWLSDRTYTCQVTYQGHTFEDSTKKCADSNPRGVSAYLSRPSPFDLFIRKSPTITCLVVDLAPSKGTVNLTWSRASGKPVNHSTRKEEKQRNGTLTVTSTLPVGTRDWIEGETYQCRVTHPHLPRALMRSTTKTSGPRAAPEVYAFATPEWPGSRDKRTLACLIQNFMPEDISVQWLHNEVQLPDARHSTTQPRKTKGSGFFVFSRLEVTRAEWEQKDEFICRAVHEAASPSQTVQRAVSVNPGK

Row | Max effect [1] [%] | binding result [2] | EC50 [1] [nM] | Kd [3] [nM] | koff [3] [s⁻¹] | kon [3] [M⁻¹ s⁻¹] | Binder
1 | 35 | no binding |  |  |  |  | sdAb F5 (VHH) VHH: DVQLQESGGGLVQPGGSLRLSCAASGSIFSIDIMGWYRQAPGKQRELVATMPEGNYINYADSVKGRLTLSRDKGKNTVYLQLNSLKPEDTAVYYCYGFGVREGRGNVYWGQGTQVTVS
2 | 65 | no binding | 200 | 65 | 0.049 | 760000 | sdAb B1 (VHH) VHH: QVQLQESGGGLVQTGGSLRLSCAVHGRTFSNTGMGWFRQAPGNERQFVAIISPSGTSTYYADSVKGRFTISRDPAKNTVYLQMNSLKMDDTAVYYCAASYGSNWSTLRHQRRNEYDAWGQGTQVAVS
3 | < 20 | no binding |  | 0.11 | 7.8e-05 | 700000 | sdAb B2 (VHH) VHH: QVQLVESGGGLVQAGGSLRLSCAVFGSTFSNNVADWYRQAPGKQRELVARISASGATREYGDSVKGRFTISRDDAKNTMYLQMNNLKPEDTAVYRCHKIEWEDLSRKDYWGQGTQVTVS
4 | < 20 | no binding |  |  |  |  | sdAb F4 (VHH) VHH: DVQLQESGGGLVQAGGSLRLSCAVSGLSFSSMGWFRQPPGKEREFVAAISLYSGSTYYADSVKGRFTISSDNAKSTVYLQMNSLKPEDAAVYFCAADRQRTWSTFYASRQATYNYWGQGTQVTVTS
5 | 0 | no binding |  |  |  |  | sdAb E2 (VHH) VHH: DVQLQESGGGLVQAGGSLRLSCAASGRTISRYAVGWFRRPPAKEREFIGINWSGGSTTYADSAEGRFIISRDNAKNTVYLQMNSLKPEDTAVYYCAVPSVLVQGGISNPSQYDYWGQGTQVTVS
6 | 0 | no binding |  | 3.2 | 0.00045 | 140000 | sdAb D1 (VHH) VHH: DVQLQESGGGLVQAGGSLRLSCAASGLTFSRCDMGWFRQAPGKEREFVARISANGASTHYADFVKGRFTISRDNAKNTVYLQMNYLKPEDTAVYICAAARVPVTWQLYDYWGQGTQVTVS
7 | 0 | no binding |  | 0.28 | 0.00025 | 880000 | sdAb B3 (VHH) VHH: DVQLQESGGGLVQAGGSLRLSCAASGFIFRLAGMSWVRQAPGKGFEWVSGITMDGSTTNYADSVKGRFTISRDNSKNRLYLQMNSLKPEDTAVYYCARGAKGGYNDPRGQGTQVTVS
8 | 0 | no binding |  |  |  |  | sdAb E3 (VHH) VHH: DVQLQESGGGLVQAGGSLRLACAASGRTLSSYVVSWFRQAPGKERKFVAAITWSGLSTTYLDSVQGRFTISRDNTKDTVYLQMNSLKPQDTAIYYCAAGPNIPSILRTRESEYAYWGQGTQVTVS
9 | < 20 | no binding |  |  |  |  | sdAb E1 (VHH) VHH: DVQLQESGGGLVQAGGSLRLSCLASGRTFTTTSGYNMGWFRQAPGKEREFVAGIKWVSGSNRAYAESVKGRFTISRDNAKNTVYLQMNSLKPEDTAVYYCAAATGQSYVPIREYEYVYWGQGTQVTVS
10 | 0 | no binding |  |  |  |  | sdAb F3 (VHH) VHH: DVQLQESGGGLVQAGGSLKLSCAASRGSLSRWDVAWFRQAPGKERSFVTRISWSGTTSYYADAVKGRFAISRDNAKNTVYLQMNSLKPEDTAVYYCAVALYGNRGYYDVNAHSYWGQGTQVTVS
11 | 0 | no binding |  |  |  |  | sdAb F1 (VHH) VHH: DVQLQESGGGLVQAGGSLKLSCAASGGSLSRYDMGWFRQAPGKEREFVARISWSGTTKYYADAVKGRFAISRDNAKNTVYLQMNSLKPEDTAVYYCAAAFYGNRGYYDVNAYTSSGQGTQVTVS

Second part, the binder before the results:

Row | Binder | Max effect [1] [%] | binding result [2] | EC50 [1] [nM] | Kd [3] [nM] | koff [3] [s⁻¹] | kon [3] [M⁻¹ s⁻¹]
12 | A1B2(G4S)4 (bispecific antibody) EVQLLESGGGLVQPGGSLRLSCAASGFTFGNYDMAWVRQAPGKRPEWVSSIDTGGDITHYADSVKGRFTISRDNAKNTLYLQMNSLRPEDTAVYWCATDEEYALGPNEFDYYGQGTLVTVSGGGGSGGGGSGGGGSGGGGSQVQLVESGGGLVQAGGSLRLSCAVFGSTFSNNVADWYRQAPGKQRELVARISASGATREYGDSVKGRFTISRDDAKNTMYLQMNNLKPEDTAVYRCHKIEWEDLSRKDYWGQGTQVTVS | > 95 |  | 1.4 |  |  | 
13 | B2A1(G4S)4 (bispecific antibody) QVQLVESGGGLVQAGGSLRLSCAVFGSTFSNNVADWYRQAPGKQRELVARISASGATREYGDSVKGRFTISRDDAKNTMYLQMNNLKPEDTAVYRCHKIEWEDLSRKDYWGQGTQVTVSGGGGSGGGGSGGGGSGGGGSEVQLLESGGGLVQPGGSLRLSCAASGFTFGNYDMAWVRQAPGKRPEWVSSIDTGGDITHYADSVKGRFTISRDNAKNTLYLQMNSLRPEDTAVYWCATDEEYALGPNEFDYYGQGTLVTVS | > 95 |  | 30 |  |  | 
14 | F1A1(G4S)4 (bispecific antibody) DVQLQESGGGLVQAGGSLKLSCAASGGSLSRYDMGWFRQAPGKEREFVARISWSGTTKYYADAVKGRFAISRDNAKNTVYLQMNSLKPEDTAVYYCAAAFYGNRGYYDVNAYTSSGQGTQVTVSGGGGSGGGGSGGGGSGGGGSEVQLLESGGGLVQPGGSLRLSCAASGFTFGNYDMAWVRQAPGKRPEWVSSIDTGGDITHYADSVKGRFTISRDNAKNTLYLQMNSLRPEDTAVYWCATDEEYALGPNEFDYYGQGTLVTVS | > 95 |  | 4000 |  |  | 
15 | D2A1(G4S)4 (bispecific antibody) DVQLQESGGGLVEAGGSLRLSCVASGRTFSGWSMGWFRQAPGKEREFVAAISWVGSWIGGTVYSNSVKGRFTISRDNARTTVYLQMNSLKPEDTAVYFCAAANSETPRIFASEYDYWGQGTQVTVSGGGGSGGGGSGGGGSGGGGSEVQLLESGGGLVQPGGSLRLSCAASGFTFGNYDMAWVRQAPGKRPEWVSSIDTGGDITHYADSVKGRFTISRDNAKNTLYLQMNSLRPEDTAVYWCATDEEYALGPNEFDYYGQGTLVTVS | > 95 |  | 8 |  |  | 
16 | B3A1(G4S)4 (bispecific antibody) DVQLQESGGGLVQAGGSLRLSCAASGFIFRLAGMSWVRQAPGKGFEWVSGITMDGSTTNYADSVKGRFTISRDNSKNRLYLQMNSLKPEDTAVYYCARGAKGGYNDPRGQGTQVTVSGGGGSGGGGSGGGGSGGGGSEVQLLESGGGLVQPGGSLRLSCAASGFTFGNYDMAWVRQAPGKRPEWVSSIDTGGDITHYADSVKGRFTISRDNAKNTLYLQMNSLRPEDTAVYWCATDEEYALGPNEFDYYGQGTLVTVS | > 95 |  | 0.3 |  |  | 
17 | A1D2(G4S)4 (bispecific antibody) EVQLLESGGGLVQPGGSLRLSCAASGFTFGNYDMAWVRQAPGKRPEWVSSIDTGGDITHYADSVKGRFTISRDNAKNTLYLQMNSLRPEDTAVYWCATDEEYALGPNEFDYYGQGTLVTVSGGGGSGGGGSGGGGSGGGGSDVQLQESGGGLVEAGGSLRLSCVASGRTFSGWSMGWFRQAPGKEREFVAAISWVGSWIGGTVYSNSVKGRFTISRDNARTTVYLQMNSLKPEDTAVYFCAAANSETPRIFASEYDYWGQGTQVTVS | > 95 |  | 10 |  |  | 
18 | A1B3(G4S)4 (bispecific antibody) EVQLLESGGGLVQPGGSLRLSCAASGFTFGNYDMAWVRQAPGKRPEWVSSIDTGGDITHYADSVKGRFTISRDNAKNTLYLQMNSLRPEDTAVYWCATDEEYALGPNEFDYYGQGTLVTVSGGGGSGGGGSGGGGSGGGGSDVQLQESGGGLVQAGGSLRLSCAASGFIFRLAGMSWVRQAPGKGFEWVSGITMDGSTTNYADSVKGRFTISRDNSKNRLYLQMNSLKPEDTAVYYCARGAKGGYNDPRGQGTQVTVS | 80 |  | 190 |  |  | 
19 | A1A1(G4S)4 (VHH, monospecific, bivalent control of two A1 linked by (G4S)4) EVQLLESGGGLVQPGGSLRLSCAASGFTFGNYDMAWVRQAPGKRPEWVSSIDTGGDITHYADSVKGRFTISRDNAKNTLYLQMNSLRPEDTAVYWCATDEEYALGPNEFDYYGQGTLVTVSGGGGSGGGGSGGGGSGGGGSEVQLLESGGGLVQPGGSLRLSCAASGFTFGNYDMAWVRQAPGKRPEWVSSIDTGGDITHYADSVKGRFTISRDNAKNTLYLQMNSLRPEDTAVYWCATDEEYALGPNEFDYYGQGTLVTVS | 90 |  | 250 |  |  | 
